First the molecules themselves.
B1: V(D)J recombination-activating protein 2, residues 415 to 491; numbered along this chain, P55895 (parent)
chain: YWITCCPTCDVDINTWVPFYSTELNKPAMIYCSHGDGHWVHAQCMDLAERTLIHLSAGSNKYYCNEHVEIARALHTP

± gives the uncertainty stated by the source.

The variants in the data set derive from B1. Description: abundance fitness (aPCA) (normalised: wild type 0, dead -1); higher = more abundant; growth selection in yeast, the domain comes from the species named. The note with it: Homo sapiens.
Turning to YWITCCPTCDVDINTWVPFYSTELNKPAMIYCSHGDGHWVHAQCMDLAERTLIHLSAGSAKYYCNEHVEIARALHTP [N60A], the abundance fitness came to 0.002 ± 0.069.

Turning to YWITCCPTCDVDINTWVPFYSTELNKPAMIYCSHGDGHWVHAQCMDLAERTLIHLSAGSIKYYCNEHVEIARALHTP [N60I], the abundance fitness is -0.045 ± 0.099.

As for YWITCCPTCDVDINTWVPFYSTELNKPAMIYCSHGDGHWVHAQCMDLAERTLIHLSAGSWKYYCNEHVEIARALHTP [N60W], the abundance fitness is -0.207 ± 0.096.

In the case of YWITCCPTCDVDINTWVPFYSTELNKPAMIYCSHGDGHWVHAQCMDLAERTLIHLSAGSNQYYCNEHVEIARALHTP [K61Q], the abundance fitness worked out at 0.097 ± 0.36.

As to YWITCCPTCDVDINTWVPFYSTELNKPAMIYCSHGDGHWVHAQCMDLAERTLIHLSAGSNTYYCNEHVEIARALHTP [K61T], the abundance fitness is -0.045 ± 0.3.

As to YWITCCPTCDVDINTWVPFYSTELNKPAMIYCSHGDGHWVHAQCMDLAERTLIHLSAGSNWYYCNEHVEIARALHTP [K61W], the abundance fitness was -0.159 ± 0.2.

Take YWITCCPTCDVDINTWVPFYSTELNKPAMIYCSHGDGHWVHAQCMDLAERTLIHLSAGSNRYYCNEHVEIARALHTP [K61R]: the abundance fitness was -0.287 ± 0.2.

With YWITCCPTCDVDINTWVPFYSTELNKPAMIYCSHGDGHWVHAQCMDLAERTLIHLSAGSNAYYCNEHVEIARALHTP [K61A], the abundance fitness was 0.017 ± 0.047.

With YWITCCPTCDVDINTWVPFYSTELNKPAMIYCSHGDGHWVHAQCMDLAERTLIHLSAGSNEYYCNEHVEIARALHTP [K61E], the abundance fitness is -0.002 ± 0.16.

YWITCCPTCDVDINTWVPFYSTELNKPAMIYCSHGDGHWVHAQCMDLAERTLIHLSAGSNVYYCNEHVEIARALHTP [K61V]: the abundance fitness came out at 0.069 ± 0.19.

With YWITCCPTCDVDINTWVPFYSTELNKPAMIYCSHGDGHWVHAQCMDLAERTLIHLSAGSNCYYCNEHVEIARALHTP [K61C], the abundance fitness is -0.098 ± 0.18.

Turning to YWITCCPTCDVDINTWVPFYSTELNKPAMIYCSHGDGHWVHAQCMDLAERTLIHLSAGSNLYYCNEHVEIARALHTP [K61L], the abundance fitness turned out to be 0.158 ± 0.1.

For the variant YWITCCPTCDVDINTWVPFYSTELNKPAMIYCSHGDGHWVHAQCMDLAERTLIHLSAGSNGYYCNEHVEIARALHTP [K61G], the abundance fitness is 0.06 ± 0.12.

On to YWITCCPTCDVDINTWVPFYSTELNKPAMIYCSHGDGHWVHAQCMDLAERTLIHLSAGSNSYYCNEHVEIARALHTP [K61S], for which the abundance fitness was -0.116 ± 0.13.

Turning to YWITCCPTCDVDINTWVPFYSTELNKPAMIYCSHGDGHWVHAQCMDLAERTLIHLSAGSNNYYCNEHVEIARALHTP [K61N], the abundance fitness was -0.115 ± 0.29.

For the variant YWITCCPTCDVDINTWVPFYSTELNKPAMIYCSHGDGHWVHAQCMDLAERTLIHLSAPSNKYYCNEHVEIARALHTP [G58P], the abundance fitness is -0.013 ± 0.11.

For the variant YWITCCPTCDVDINTWVPFYSTELNKPAMIYCSHGDGHWVHAQCMDLAERTLIHLSAKSNKYYCNEHVEIARALHTP [G58K], the abundance fitness was -0.063 ± 0.13.

Regarding YWITCCPTCDVDINTWVPFYSTELNKPAMIYCSHGDGHWVHAQCMDLAERTLIHLSAMSNKYYCNEHVEIARALHTP [G58M], the abundance fitness was -0.11 ± 0.2.

In the case of YWITCCPTCDVDINTWVPFYSTELNKPAMIYCSHGDGHWVHAQCMDLAERTLIHLSATSNKYYCNEHVEIARALHTP [G58T], the abundance fitness was -0.199 ± 0.085.

Consider YWITCCPTCDVDINTWVPFYSTELNKPAMIYCSHGDGHWVHAQCMDLAERTLIHLSACSNKYYCNEHVEIARALHTP [G58C], for which the abundance fitness was -0.061 ± 0.13.

For YWITCCPTCDVDINTWVPFYSTELNKPAMIYCSHGDGHWVHAQCMDLAERTLIHLSADSNKYYCNEHVEIARALHTP [G58D], the abundance fitness was 0.016 ± 0.096.

For the variant YWITCCPTCDVDINTWVPFYSTELNKPAMIYCSHGDGHWVHAQCMDLAERTLIHLSARSNKYYCNEHVEIARALHTP [G58R], the abundance fitness was -0.165 ± 0.076.

YWITCCPTCDVDINTWVPFYSTELNKPAMIYCSHGDGHWVHAQCMDLAERTLIHLSAYSNKYYCNEHVEIARALHTP [G58Y]: the abundance fitness is -0.126 ± 0.11.

For YWITCCPTCDVDINTWVPFYSTELNKPAMIYCSHGDGHWVHAQCMDLAERTLIHLSAFSNKYYCNEHVEIARALHTP [G58F], the abundance fitness is -0.221 ± 0.14.

YWITCCPTCDVDINTWVPFYSTELNKPAMIYCSHGDGHWVHAQCMDLAERTLIHLSAQSNKYYCNEHVEIARALHTP [G58Q]: the abundance fitness stood at 0.025 ± 0.092.

Take YWITCCPTCDVDINTWVPFYSTELNKPAMIYCSHGDGHWVHAQCMDLAERTLIHLSAWSNKYYCNEHVEIARALHTP [G58W]: the abundance fitness was -0.06 ± 0.092.

Consider YWITCCPTCDVDINTWVPFYSTELNKPAMIYCSHGDGHWVHAQCMDLAERTLIHLSAASNKYYCNEHVEIARALHTP [G58A], for which the abundance fitness is -0.049 ± 0.074.

Consider YWITCCPTCDVDINTWVPFYSTELNKPAMIYCSHGDGHWVHAQCMDLAERTLIHLSALSNKYYCNEHVEIARALHTP [G58L], for which the abundance fitness stood at 0.025 ± 0.078.

In the case of YWITCCPTCDVDINTWVPFYSTELNKPAMIYCSHGDGHWVHAQCMDLAERTLIHLSANSNKYYCNEHVEIARALHTP [G58N], the abundance fitness was -0.426 ± 0.19.

As to YWITCCPTCDVDINTWVPFYSTELNKPAMIYCSHGDGHWVHAQCMDLAERTLIHLSAVSNKYYCNEHVEIARALHTP [G58V], the abundance fitness is -0.161 ± 0.084.

Take YWITCCPTCDVDINTWVPFYSTELNKPAMIYCSHGDGHWVHAQCMDLAERTLIHLSAISNKYYCNEHVEIARALHTP [G58I]: the abundance fitness was -0.003 ± 0.39.

In the case of YWITCCPTCDVDINTWVPFYSTELNKPAMIYCSHGDGHWVHAQCMDLAERTLIHLSAHSNKYYCNEHVEIARALHTP [G58H], the abundance fitness came to 0.013 ± 0.16.

YWITCCPTCDVDINTWVPFYSTELNKPAMIYCSHGDGHWVHAQCMDLAERTLIHLSAESNKYYCNEHVEIARALHTP [G58E]: the abundance fitness worked out at 0.041 ± 0.089.

Regarding YWITCCPTCDVDINTWVPFYSTELNKPAMIYCSHGDGHWVHAQCMDLAERTLIHLSASSNKYYCNEHVEIARALHTP [G58S], the abundance fitness is -0.038 ± 0.071.

Take YWITCCPTCDVDINTWVPFYSTELNKPAMIYCSHGDGHWVHAQCMDLAERTLIHLSAGSNKAYCNEHVEIARALHTP [Y62A]: the abundance fitness is -0.328 ± 0.08.

Turning to YWITCCPTCDVDINTWVPFYSTELNKPAMIYCSHGDGHWVHAQCMDLAERTLIHLSAGSNKCYCNEHVEIARALHTP [Y62C], the abundance fitness was -0.442 ± 0.2.

For the origin of these results see the Human Domainome abundance scans (Beltran et al. 2025).
